Laboratory results from article PMC11912573, “Dynamic Assembly of Pentamer-Based Protein Nanotubes” (ACS Nano, 2025).
Where a chain is given by its changes, count along the chain named. In names and notes the source's numbering stands. Several values for one entry are separate records, joined by “and”; a condition that tells them apart may be missing. Equal entries are not always repeated.

Tests used:
[1] = target: the molecule itself; assay: cryo-EM micrographs; Glacios microscope, micrographs of the assemblies; buffer of these samples not given
[2] = target: the molecule itself; assay: cryo-EM structure; cpAaLS(119, C37S, A85C) twisted tubes, helical reconstruction in three classes (0-, 18-, 28-Å gap); 50 mM Tris-HCl pH 8.5, 0.15 M NaCl, 1 mM TCEP
[3] = target: the molecule itself; assay: cryo-EM 2D classification; cpAaLS(119) capsomers without NaCl at pH 8.5; Titan Krios; 3D reconstruction unsuccessful (preferential orientation)

B1: circularly permuted Aquifex aeolicus lumazine synthase cpAaLS(84) (enzyme)
chain: ATPHFDYIASEVSKGLANLSLELRKPITFGVITADTLEQAIERAGTKHGNKGWEAALSAIEMANLFKSLRGTGGSGSSMQIYEGKLTAEGLRFGIVASRFNHALVDRLVEGAIDCIVRHGGREEDITLVRVPGSWEIPVAAGELARKEDIDAVIAIGVLIRG
notes: Aquifex aeolicus lumazine synthase (AaLS), from the new N-terminus at residue 85 to the native C-terminus; octapeptide linker connecting the native C- and N-termini; Aquifex aeolicus lumazine synthase (AaLS), from the native N-terminus to the new C-terminus at residue 84; source: E. coli BL21-Gold(DE3), purified (heating at 70 °C, anion exchange, SEC)
- binding result [1]: binds

B2: cpAaLS(119, C37S, A85C) (enzyme, Aquifex aeolicus)
chain: TLEQAIERAGTKHGNKGWEAALSAIEMANLFKSLRGTGGSGSSMQIYEGKLTAEGLRFGIVASRFNHALVDRLVEGAIDSIVRHGGREEDITLVRVPGSWEIPVAAGELARKEDIDAVIAIGVLIRGCTPHFDYIASEVSKGLANLSLELRKPITFGVITAD
notes: Aquifex aeolicus lumazine synthase (AaLS), from the new N-terminus at residue 120 to the native C-terminus; octapeptide linker connecting the native C- and N-termini; Aquifex aeolicus lumazine synthase (AaLS), from the native N-terminus to the new C-terminus at residue 119, with C37S and A85C; Made from cpAaLS(119) by two rounds of site-directed mutagenesis; source: E. coli BL21-Gold(DE3), …
- binding result [2]: binds

B3: circularly permuted Aquifex aeolicus lumazine synthase cpAaLS(119) (enzyme)
chain: B2 chain with S80C, C128A
notes: Aquifex aeolicus lumazine synthase (AaLS), from the new N-terminus at residue 120 to the native C-terminus; includes the α-helix(120–131); octapeptide linker connecting the native C- and N-termini; Aquifex aeolicus lumazine synthase (AaLS), from the native N-terminus to the new C-terminus at residue 119; source: E. coli BL21-Gold(DE3), purified (heating at 70 °C, anion exchange, SEC)
- stoichiometry N [3]: 5 and 10
